The supplement of paper PMC10567573

B1: ZNF511 (parent)
chain: YEHHYHTLHGNVCSFCKRAFPSGH
B2: MYL5 (parent)
chain: DVAGNLDYKALSYVITHGEEKEE
B3: PDZK1 (parent)
chain: FQAKKIPIVSSLADPLDTPPDSKE

Variants of: B1
Test: protein stability index of a GFP-peptide fusion (GPS, HEK-293T) (PSI 1-6); higher = more stable
Conditions: c terminus: a fixed tail appended
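Note: lentivirally expressed fusions sorted by FACS into six bins by GFP to DsRed ratio, PSI derived from sequencing read proportions per bin multiplied by bin number.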

Protein stability index of substitutions, site by site:
Y1: H 2.81, N 3.38, L 2.75, P 2.98, M 2.63, A 3.02, R 2.22, C 4.05, S 3.29, E 3, Q 3.62, W 2.07, V 2.51, T 2.75, F 2.72, K 3.02, D 3.67, G 2.99, I 2.89
H6: V 2.51, C 2.6, S 1.92, L 1.72, G 1.69, M 1.6, I 2.15, D 2.34, Q 1.88, W 1.66, A 1.88, K 1.53, Y 1.83, N 2.33, P 1.68, E 2.4, R 1.38, F 1.48, T 1.94
H9: G 2.24, S 1.72, I 2.28, C 2.18, F 1.68, Y 2, L 1.5, Q 2.19, M 2.06, W 1.83, D 1.97, A 1.93, E 1.93, V 2.57, T 2.16, K 2.77, N 2.49, R 2.48, P 2.72
E2: H 2.66, I 2.34, S 3.32, A 3.31, N 1.37, R 1.8, Q 2.43, M 2.08, T 3.14, D 2.9, G 2.9, W 2.85, P 1.54, F 3.12, L 1.65, V 2.89, Y 2.27, C 2.15, K 1.76
G10: P 1.95, R 1.59, K 2.76, Q 1.78, L 1.95, I 1.83, A 2.23, H 1.87, T 2.13, S 1.97, E 2.39, F 1.78, D 2.29, M 2.01, C 2.46, N 2.28
T7: A 1.95, R 2.07, S 1.72, W 1.75, M 2.86, I 2.31, C 2.77, P 2.2, H 2.46, L 2.28, D 2.64, N 2.09, V 1.85, Q 1.9, F 2.06, G 2.14, Y 2.09, E 2.07, K 1.24
L8: N 2.67, F 2.62, A 2.47, C 3.62, W 2.3, Y 2.6, E 2.65, D 2.57, V 2.74, M 2.12, P 2.43, I 2.44, K 2.26, G 2.52, Q 2.62, R 2.4, H 2.92, T 2.67, S 2.23
H3: N 2.52, Y 2.23, Q 2.19, W 2.12, P 2.8, F 2.06, A 1.97, E 2.9, D 3.06, K 2.27, M 1.94, R 2.09, I 2.18, C 3.57, T 2.91, G 3.04, V 2.09, S 2.6, L 2.13
Y5: E 3.85, S 3.01, R 2.62, D 3.51, Q 3.28, V 3.47, W 2.32, L 2.48, T 3.67, G 3.54, I 2.68, H 3.22, F 2.29, P 3.04, K 2.54, M 2.39, A 2.81, N 3.01, C 3.95
H4: N 2.23, V 1.91, D 2.17, F 1.33, W 1.73, G 2.05, S 2.43, E 2.7, M 2.52, P 2.38, I 1.82, T 1.95, Y 1.93, Q 2.1, C 3.26, L 2.07, A 1.75, K 2.03, R 1.73

Variants of: B2
Test: as above
Conditions: c terminus: native

Protein stability index, by site and new letter:
K21: C 2.53
E22: D 4.71
E23: L 2.42, A 4.11
E19: M 1.08
V2: C 2.31, G 2.06
I15: M 1.82
G18: L 1.69, H 1.7, A 1.45
Y13: S 2.97
S12: K 2.3
Y8: E 2.01, C 2.32, D 1.81
A3: I 1.71
E20: Y 2.61, M 1.77
N5: G 2.88, Q 2.61, H 1.92, V 2.05, W 1.83
L6: C 1.74
G4: P 1.61, V 1.92, S 2.09, M 1.59, T 2.42, F 1.77, R 2.5, Y 1.57
A10: M 2.23, S 2.08, T 1.9
D7: V 1.96, H 2.83
K9: P 1.95, R 1.35, F 2.23
V14: R 1.31, D 2.97, I 3.02

Variants of: B3
Test: as above
Conditions: c terminus: a fixed tail appended

Protein stability index, by site and new letter:
K23: G 3.94, V 3.33, R 3.23
L16: Y 3.47, N 4.27, A 3.85, R 3.77, W 2.99, V 3.91, I 3.91, F 2.89, S 4.13, E 4.07, G 3.85, M 3.79, C 3.72, K 3.76
S11: V 3.38
L12: Y 3.75
D21: G 2.89, R 2.76
T18: D 3.68, V 3.57, M 3.73, A 3.59, N 3.48, H 3.29, C 3.46, E 3.75, R 3.6, Y 3.33, I 3.75, S 3.53, F 3.55, K 3.81, W 3.86, G 3.62
P15: Q 3.71, T 3.57, F 3.23, R 3.73, M 3.11, S 3.58, E 3.48, K 3.25, L 2.86, V 3.43, C 3.55, N 3.64, A 3.61, I 3.53, W 2.45, D 4.1, G 4.12, H 3.85, Y 3.32
D14: R 3.81, L 3.5, K 3.65, Q 3.86, E 3.65, V 4.1, M 3.55
P19: E 3.35, S 3.67, M 3.72, Y 3.81, Q 4.17, C 3.53, A 3.43, N 3.88, K 3.66, D 3.87, F 2.9, L 3.2, W 3.19, T 3.85, R 3.56, H 4.01, I 3.55, V 3.54, G 3.91
D17: L 3.28, A 3.75
P20: W 2.62, I 3.61, R 3.77, S 3.62, H 3.53, Y 3.89, G 4.28, A 4.05, V 3.74, L 3.35, Q 3.73, E 4.21, K 3.88, M 3.75, T 3.58, C 3.94, D 4.28, N 3.7, F 3.17
